Measured values: patent publication US20120083519

How the values were obtained:
[1] = system: T1, nephrin (co-expressed in HEK cells)
T1 sequence: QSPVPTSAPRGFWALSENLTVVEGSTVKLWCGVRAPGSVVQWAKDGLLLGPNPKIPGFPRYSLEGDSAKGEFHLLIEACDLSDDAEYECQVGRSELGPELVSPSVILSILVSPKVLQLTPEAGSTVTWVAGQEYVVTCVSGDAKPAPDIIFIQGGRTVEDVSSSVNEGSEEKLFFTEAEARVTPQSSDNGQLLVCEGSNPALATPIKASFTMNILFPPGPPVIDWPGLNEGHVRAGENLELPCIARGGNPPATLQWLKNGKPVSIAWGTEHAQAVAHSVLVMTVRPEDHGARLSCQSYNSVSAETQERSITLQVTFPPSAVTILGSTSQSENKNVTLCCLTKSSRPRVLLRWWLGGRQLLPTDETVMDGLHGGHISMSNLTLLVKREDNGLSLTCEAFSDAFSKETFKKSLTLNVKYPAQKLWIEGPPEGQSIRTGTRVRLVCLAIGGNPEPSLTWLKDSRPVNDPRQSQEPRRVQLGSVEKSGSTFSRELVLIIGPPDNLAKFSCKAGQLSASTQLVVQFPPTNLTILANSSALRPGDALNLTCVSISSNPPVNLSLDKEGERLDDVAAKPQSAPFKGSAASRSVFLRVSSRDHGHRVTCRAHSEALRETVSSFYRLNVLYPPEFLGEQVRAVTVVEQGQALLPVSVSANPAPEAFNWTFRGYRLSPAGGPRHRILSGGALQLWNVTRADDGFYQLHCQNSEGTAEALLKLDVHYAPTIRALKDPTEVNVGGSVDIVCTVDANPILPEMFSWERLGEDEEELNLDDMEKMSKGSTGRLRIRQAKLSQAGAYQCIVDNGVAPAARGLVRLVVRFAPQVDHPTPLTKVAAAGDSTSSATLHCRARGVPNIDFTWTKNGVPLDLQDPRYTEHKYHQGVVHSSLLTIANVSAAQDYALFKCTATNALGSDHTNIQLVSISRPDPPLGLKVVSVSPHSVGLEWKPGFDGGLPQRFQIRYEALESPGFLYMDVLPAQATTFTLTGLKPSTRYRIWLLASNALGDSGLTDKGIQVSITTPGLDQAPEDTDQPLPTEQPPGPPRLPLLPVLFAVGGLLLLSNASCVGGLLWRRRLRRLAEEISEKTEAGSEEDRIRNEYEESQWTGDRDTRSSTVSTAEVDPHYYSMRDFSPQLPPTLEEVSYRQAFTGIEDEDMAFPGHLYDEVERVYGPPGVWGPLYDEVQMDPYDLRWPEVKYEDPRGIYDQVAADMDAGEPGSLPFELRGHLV

[2] = system: C-mip protein (c-maf inducing protein), human, full-length
C-mip protein (c-maf inducing protein), human, full-length, sequence (chain, as listed by the source): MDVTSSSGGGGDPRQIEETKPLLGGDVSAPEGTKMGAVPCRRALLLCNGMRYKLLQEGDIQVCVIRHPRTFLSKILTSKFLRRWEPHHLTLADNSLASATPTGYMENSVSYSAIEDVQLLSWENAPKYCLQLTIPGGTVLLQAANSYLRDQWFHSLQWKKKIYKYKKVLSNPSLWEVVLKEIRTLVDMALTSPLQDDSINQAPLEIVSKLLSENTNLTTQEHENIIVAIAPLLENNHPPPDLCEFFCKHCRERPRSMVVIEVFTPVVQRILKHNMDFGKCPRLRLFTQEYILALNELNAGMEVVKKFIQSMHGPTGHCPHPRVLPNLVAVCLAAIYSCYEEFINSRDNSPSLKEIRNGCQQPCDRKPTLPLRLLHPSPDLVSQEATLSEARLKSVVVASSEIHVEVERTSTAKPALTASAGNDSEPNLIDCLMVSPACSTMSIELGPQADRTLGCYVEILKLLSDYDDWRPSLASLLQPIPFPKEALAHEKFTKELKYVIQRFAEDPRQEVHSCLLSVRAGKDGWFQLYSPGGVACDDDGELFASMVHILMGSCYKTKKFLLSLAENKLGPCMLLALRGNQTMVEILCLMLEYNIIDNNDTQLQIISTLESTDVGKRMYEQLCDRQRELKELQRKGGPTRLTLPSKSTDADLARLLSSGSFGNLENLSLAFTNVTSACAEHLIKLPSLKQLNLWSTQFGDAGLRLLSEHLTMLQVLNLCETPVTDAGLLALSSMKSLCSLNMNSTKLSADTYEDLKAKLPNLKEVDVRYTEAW

Fyn (expressed from Fyn plasmid in HEK 293 cells)
phosphorylation of nephrin at tyrosine residue Y1208 [1]: Co-expression of nephrin and Fyn induced phosphorylation of nephrin at tyrosine residue Y1208 | phosphorylation of nephrin by Fyn at Y1208 [2]: co-expression of c-mip reduced the phosphorylation of nephrin by Fyn at this tyrosine residue
